This assay concerns the target HA-metabotropic glutamate receptor 3, Q14832. The experiment in a line: AFM single-molecule force spectroscopy (AFM-SMFS); living WTT-CHO cells transfected with 1 µg of HA-GPCR vector, basal state, 37 °C; anti-HA antibody on the AFM tip pulls the HA-receptor out of the membrane; unfolding distances fitted by a Gaussian mixture (BIC) and each population assigned to an oligomeric state by the receptor's theoretical …. The following applies: remark: other sources report otherwise.

From PMC8913689 come the findings set out here.

B1: HA-metabotropic glutamate receptor 3, Q14832 23-879 (receptor)
chain: LGDHNFLRREIKIEGDLVLGGLFPINEKGTGTEECGRINEDRGIQRLEAMLFAIDEINKDDYLLPGVKLGVHILDTCSRDTYALEQSLEFVRASLTKVDEAEYMCPDGSYAIQENIPLLIAGVIGGSYSSVSIQVANLLRLFQIPQISYASTSAKLSDKSRYDYFARTVPPDFYQAKAMAEILRFFNWTYVSTVASEGDYGETGIEAFEQEARLRNICIATAEKVGRSNIRKSYDSVIRELLQKPNARVVVLFMRSDDSRELIAAASRANASFTWVASDGWGAQESIIKGSEHVAYGAITLELASQPVRQFDRYFQSLNPYNNHRNPWFRDFWEQKFQCSLQNKRNHRRVCDKHLAIDSSNYEQESKIMFVVNAVYAMAHALHKMQRTLCPNTTKLCDAMKILDGKKLYKDYLLKINFTAPFNPNKDADSIVKFDTFGDGMGRYNVFNFQNVGGKYSYLKVGHWAETLSLDVNSIHWSRNSVPTSQCSDPCAPNEMKNMQPGDVCCWICIPCEPYEYLADEFTCMDCGSGQWPTADLTGCYDLPEDYIRWEDAWAIGPVTIACLGFMCTCMVVTVFIKHNNTPLVKASGRELCYILLFGVGLSYCMTFFFIAKPSPVICALRRLGLGSSFAICYSALLTKTNCIARIFDGVKNGAQRPKFISPSSQVFICLGLILVQIVMVSVWLILEAPGTRRYTLAEKRETVILKCNVKDSSMLISLTYDVILVILCTVYAFKTRKCPENFNEAKFIGFTMYTTCIIWLAFLPIFYVTSSDYRVQTTTMCISVSLSGFVVLGCLFAPKVHIILFQPQKNVVTHRLHLNRFSVSGTGTTYSQSSASTYVPTVCNGREVLDSTTSSL
Turning to B1, the stoichiometry N came to 2.

By stoichiometry N is commonly meant a count of units in the complex or per binding partner.
